This note sets out measurements from US20030185792A1, “Morphogen analogs of bone morphogenic proteins” (Curis, Inc., priority 1996, published 2003).

Read-outs that look alike come from different tables or passages of the source. Bridge positions count the residues as written; N and C are the ends. Ends that are not written are not given here.

Experiment [1] concerns the target OP-1 receptor of ROS cells (OP-1 receptor-enriched plasma membrane fraction of ROS cells) (rat).
The target is the same in experiment [2]. This is another data set of the same source.
Experiment [3] shares this target. In words: radioligand receptor assay, ROS cell plasma membranes.
For experiment [4] the target is unchanged. The source holds these as a separate data set.
Experiment [5] shares this target. This is another data set of the same source.
Experiment [6] shares this target. In words: displacement of ^125I-soluble OP-1 from ROS cell plasma membranes.
For experiment [7] the target is unchanged. The source holds these as a separate data set.
Experiment [8] shares this target. This is another data set of the same source.
For experiment [9] the target is unchanged. This is another data set of the same source.
Experiment [10] has the same target. In words: binding of ^125I-OP-1 to excess receptor (ROS cell plasma membranes).
For experiment [11] the target is unchanged. In words: equilibrium binding of ^125I-OP-1 to OP-1 receptor-enriched ROS cell plasma membranes.

B1: Peptide F1-1 (peptide)
peptide: CELYVSFRDLGWQDWIIAPEGYAAYC
modifications: disulfide 1-26
In turn, B1 yielded an IC50 (peptide concentration giving 50% inhibition of cellular responsiveness to OP-1), ROS cell alkaline phosphatase in experiment [1] of 20 µM.

B2: Peptide H-C2 (peptide)
peptide: CCFINPETVCC
modifications: disulfide (positions not given here); not fully specified (bridges); also: double disulfide bonds, pairing of the four Cys not given here
B2: in experiment [2], the IC50 (peptide concentration giving 50% inhibition of cellular responsiveness to OP-1), ROS cell alkaline phosphatase amounted to 5 µM. In experiment [3], the concentration at which the binding of ^125I-labeled OP-1 to the receptor was potentiated worked out at 8 µM.

B3: Peptide F2-2 (peptide)
peptide: CYFDDSSNVIC
modifications: disulfide 1-11
B3: the alkaline phosphatase activity of ROS cells, increase relative to soluble OP-1 alone in experiment [4] was determined as 20%. Moreover, in experiment [5], the OP-1 induced cellular alkaline phosphatase activity of ROS cells, potentiation was 20%. Also, the ED50 in experiment [3] and in experiment [6] was 1 µM throughout.

B4: Peptide F2-3 (peptide)
peptide: CYFDDSSNVICKKYRS
modifications: disulfide 1-11
B4 yielded an alkaline phosphatase activity of ROS cells, increase relative to soluble OP-1 alone in experiment [4] of 20%. The molecule further came in with an OP-1 induced cellular alkaline phosphatase activity of ROS cells, % increase in OP-1 response relative to the absence of peptide in experiment [7] of 53%. The ED50 in [3] is 10 µM; in experiment [6] it was 5 µM.

B5: Peptide F1-2 (peptide)
peptide: CFRDLGWQDWIIAPC
modifications: disulfide 1-15
As to B5, the IC50 (peptide concentration giving 50% inhibition of the cell response to OP-1), ROS cell alkaline phosphatase in [8] amounted to 10 µM. In experiment [3], this molecule came in with a concentration required to inhibit the binding of ^125I-labeled OP-1 of 179 µM.

B6: Peptide F2-1 (peptide)
peptide: CLNAISVLYFDDSSNVILKKYRNMVVRC
modifications: disulfide 1-28 (inferred)
The molecule B6 registered an IC50 (peptide concentration inhibiting the OP-1 induced cell response by 50%), ROS cell alkaline phosphatase in experiment [9] of 8 µM.

B7: OP-1 (osteogenic protein-1), mature human OP-1 (ligand)
chain: CKKHELYVSFRDLGWQDWIIAPEGYAAYYCEGECAFPLNSYMNATNHAIVQTLVHFINPETVPKPCCAPTQLNAISVLYFDDSSNVILKKYRNMVVRACGCH
modifications: radio-iodinated (^125I) when used as tracer; unlabeled when used as competitor or in the bioassay
With B7, the percent bindability to excess receptor in [10] lay within 30 to 37%. Moreover, in [11], the Ka is 4.38e+09 M⁻¹ and the average OP-1 binding capacity (pmol/mg protein) worked out at 3.6.
